Laboratory results as given in patent publication US12077599 (SEOUL NATIONAL UNIVERSITY R AND DB FOUNDATION NATIONAL …, dated 2024).

T1: ROS1 synthetic peptide (amino acids 39-56 of ROS1 combined to GGGC) conjugated to BSA (human, not fully specified; conjugated to bovine serum albumin (BSA) or ovalbumin (OVA))
T1 peptide: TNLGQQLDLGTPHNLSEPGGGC

B1: alanine-substituted ROS1-hFc fusion protein, Gly42 replaced with alanine (Fc fusion, not shown: a dimerising Fc or GST; small tags and cut ends)
chain: CVTNLAQQLDLGTPHNLSEPCIQGCHFWNSVDQKNCALKCRESCEVGCSSAEGAYEEEVLENADLPTAPFASSIGSHNMTLRWKSANFSGVKYIIQWKYAQLLGSWTYTKTVSRPSYVVKPLHPFTEYIFRVVWIFTAQLQLYSPPSPSYRTHPHGVPETAPLIRNIESSSPDTVEVSWDPPQFPGGPILGYNLRLISKNQKLDAGTQRTSFQFYSTLPNTIYRFSIAAVNEVGEGPEAESSITTSSSAVQQEE
notes: One of the 13 single alanine mutants from Gly42 to Ser54; also called G42A
B2: alanine-substituted ROS1-hFc fusion protein, Gln44 replaced with alanine (Fc fusion, not shown: a dimerising Fc or GST; small tags and cut ends)
chain: CVTNLGQALDLGTPHNLSEPCIQGCHFWNSVDQKNCALKCRESCEVGCSSAEGAYEEEVLENADLPTAPFASSIGSHNMTLRWKSANFSGVKYIIQWKYAQLLGSWTYTKTVSRPSYVVKPLHPFTEYIFRVVWIFTAQLQLYSPPSPSYRTHPHGVPETAPLIRNIESSSPDTVEVSWDPPQFPGGPILGYNLRLISKNQKLDAGTQRTSFQFYSTLPNTIYRFSIAAVNEVGEGPEAESSITTSSSAVQQEE
notes: also called Q44A
B3: alanine-substituted ROS1-hFc fusion protein, Asp46 replaced with alanine (Fc fusion, not shown: a dimerising Fc or GST; small tags and cut ends)
chain: CVTNLGQQLALGTPHNLSEPCIQGCHFWNSVDQKNCALKCRESCEVGCSSAEGAYEEEVLENADLPTAPFASSIGSHNMTLRWKSANFSGVKYIIQWKYAQLLGSWTYTKTVSRPSYVVKPLHPFTEYIFRVVWIFTAQLQLYSPPSPSYRTHPHGVPETAPLIRNIESSSPDTVEVSWDPPQFPGGPILGYNLRLISKNQKLDAGTQRTSFQFYSTLPNTIYRFSIAAVNEVGEGPEAESSITTSSSAVQQEE
notes: also called D46A
B4: alanine-substituted ROS1-hFc fusion protein, Gln43 replaced with alanine (Fc fusion, not shown: a dimerising Fc or GST; small tags and cut ends)
chain: CVTNLGAQLDLGTPHNLSEPCIQGCHFWNSVDQKNCALKCRESCEVGCSSAEGAYEEEVLENADLPTAPFASSIGSHNMTLRWKSANFSGVKYIIQWKYAQLLGSWTYTKTVSRPSYVVKPLHPFTEYIFRVVWIFTAQLQLYSPPSPSYRTHPHGVPETAPLIRNIESSSPDTVEVSWDPPQFPGGPILGYNLRLISKNQKLDAGTQRTSFQFYSTLPNTIYRFSIAAVNEVGEGPEAESSITTSSSAVQQEE
notes: also called Q43A

Key:
bovine serum albumin = target: T2, bovine serum albumin (bovine, UniProt P02769 25-607); experiment: ELISA, BSA coated, ROS1-hFc mutant in solution, HRP anti-hFc
T2 construct: Negative control coating in the alanine scanning ELISA; also called BSA
Procedure: (§1) For alanine scanning mutagenesis of the 3B20 scFv, microtiter plates (Corning Costar) were coated with 100 ng of the 3B20 scFv-Cκ fusion protein, BSA, or the irrelevant scFv-Cκ fusion protein overnight at 4° ° C. After blocking, the plates were incubated with alanine-substituted ROS1-human antibody Fc (hFc) fusion proteins (each amino acid residue from the 42th amino acid residue (Gly) to the 54th amino acid residue (Ser) was replaced with alanine) or a wild type ROS1-hFc fusion protein. The amount of bound fusion protein was determined using an HRP-conjugated rabbit anti-human IgG Fc antibody (Thermo Fisher Scientific, Rockford, IL, USA).
(§2) Example 2. Epitope Mapping of the 3B20 scFv by Alanine Scanning Mutagenesis Assay To further confirm the epitope of the 3B20 scFv, alanine scanning mutagenesis assay was performed using recombinant ROS1 proteins corresponding to amino acids 37-290. First, alanine-substituted ROS1 mutants in which any one of amino acid residues from Gly42 to Ser54 of ROS1 was substituted were prepared. After coating the microtiter plate well with the 3B20 scFv-Cκ fusion protein, BSA or irrelevant scFv-Cκ fusion protein, the plate was incubated with the alanine-substituted ROS1-hFc fusion protein or wild-type ROS1-hFc fusion protein. The amount of the ROS1-hFc fusion protein combined to the plate was measured using the HRP-conjugated anti-hFc antibody and ATBS solution. The obtained result was shown in FIG. 2a (3B20 scFv-Cκ fusion protein coating), 2b (BSA coating) and 2c (irrelevant scFv-Cκ fusion protein coating).

[1] = target: T1, ROS1 synthetic peptide (amino acids …); experiment: phage ELISA after five rounds of biopanning on the peptide conjugate
Description: Three White Leghorn chickens were immunized and boosted three times with the synthetic peptide ([…] […] (SEQ ID NO: 16); fusion polypeptide in which the 39th to 56th amino acid regions of ROS1 (GenBank Accession No. NP_002935.2) combined to "GGGC") conjugated to keyhole limpet hemocyanin (Peptron; Daejun, S. Korea). A phage display of a chicken single-chain variable fragment (scFv) antibody library was constructed [See C. F. Barbas, Phage Display: a Laboratory Manual, Cold Spring Harbor Laboratory Press, Cold Spring Harbor, N Y, 2001]. After five rounds of biopanning on the ROS1 synthetic peptide ([…]-[…]) conjugated to either bovine serum albumin (BSA) or ovalbumin (OVA), the single-chain variable fragment (scFv)-displaying phages were subjected to enzyme-linked immunosorbent assay (ELISA) [See C. F. Barbas, Phage Display: a Laboratory Manual, Cold Spring Harbor Laboratory Press, Cold Spring Harbor, N Y, 2001; S. Park, D. H. Lee, J. G. Park, Y. T. Lee, J. Chung, A sensitive enzyme immunoassay for measuring cotinine in passive smokers, Clin. Chim. Acta 411 (2010) 1238-1242].

[2] = target: B3; experiment: alanine scanning ELISA, 3B20 scFv-Cκ coated, ROS1-hFc mutant in solution, HRP anti-hFc
Procedure: as §1, §2

[3] = target: B4; experiment: as above
Procedure: as §1, §2

[4] = target: B1; experiment: as above
Procedure: as §1, §2

[5] = target: B2; experiment: as above
Procedure: as §1, §2

[6] = target: T3, Heat shock 70 kDa protein 1A/1B, from HEK293T cell lysate (human, UniProt P0DMV8 2-641); experiment: immunoprecipitation with 3B20 scFv-rFc from HEK293T lysates, LC-MS of the 70 kDa band
T3 construct: Identified by LC-MS/MS against the IPI human database; also called Hsp70; HSP70
Procedure: (§3) HEK293T cell lines overexpressing either ROS1 or GFP were lysed in cold lysis buffer [1% Triton X-100, 150 mM NaCl, 50 mM Tris (pH 8.0)] containing 1 mM phenylmethane sulfonyl fluoride (Merck KGaA, Darmstadt, Germany) a protease inhibitor cocktail (Roche), and a phosphatase inhibitor cocktail (Roche). Lysates were incubated with 3B20 scFv or 3B20 scFv-G1K fused to the rFc fusion protein (5 μg/mL) and protein A-conjugated agarose beads (RepliGen, Waltham, MA, USA). After washing, proteins bound to beads were eluted by boiling in NuPAGE LDS Sample Buffer (Thermo Fisher Scientific) and subjected to SDS-PAGE and immunoblotting (See Reference example 4). The eluted proteins separated by SDS-PAGE were visualized using Coomassie Brilliant Blue R250 (Merck). […]
(§4) To investigate the proteins reactive to 3B20 scFv, immunoprecipitation was performed using a 3B20 scFv-rFc fusion protein from HEK293T cells transfected with lentiviral vector encoding human ROS1 (full-length) or GFP (control). […] Bands corresponding to 70 kDa and 260 kDa were excised from the gel and analyzed by liquid chromatography/MS. The obtained result was shown in FIG. 1c, and the list of proteins analyzed in (A) and (B) bands represented by arrows in FIG. 1c was shown in the following Table 2. As expected, ROS1 (accession number: IPI0028965; SEQ ID NO: 9) was detected in a band of 260 kDa.

[7] = target: T4, Stress-70 protein, mitochondrial (GRP75), from HEK293T cell lysate (human, UniProt P38646 47-679); experiment: as above
T4 construct: Identified by LC-MS/MS against the IPI human database; also called IPI00007765 (+1)
Procedure: as §3, §4

T2 sequence (P02769 25-607 limits assumed): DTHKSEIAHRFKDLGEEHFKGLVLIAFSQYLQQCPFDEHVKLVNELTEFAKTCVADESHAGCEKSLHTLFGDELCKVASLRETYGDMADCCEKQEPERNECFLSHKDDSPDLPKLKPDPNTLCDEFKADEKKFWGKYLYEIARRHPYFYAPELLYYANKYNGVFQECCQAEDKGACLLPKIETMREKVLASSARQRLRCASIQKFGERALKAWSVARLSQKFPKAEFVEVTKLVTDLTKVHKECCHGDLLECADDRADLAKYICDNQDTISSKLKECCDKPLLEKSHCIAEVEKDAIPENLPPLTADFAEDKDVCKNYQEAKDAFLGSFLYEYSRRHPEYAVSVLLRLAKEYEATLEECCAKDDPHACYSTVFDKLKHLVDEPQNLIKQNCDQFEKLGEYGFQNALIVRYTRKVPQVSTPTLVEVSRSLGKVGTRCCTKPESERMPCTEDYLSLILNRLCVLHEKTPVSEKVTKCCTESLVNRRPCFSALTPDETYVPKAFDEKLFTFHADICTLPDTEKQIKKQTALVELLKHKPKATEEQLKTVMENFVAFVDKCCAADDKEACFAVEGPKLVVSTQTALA
T4 sequence (P38646 47-679 limits assumed): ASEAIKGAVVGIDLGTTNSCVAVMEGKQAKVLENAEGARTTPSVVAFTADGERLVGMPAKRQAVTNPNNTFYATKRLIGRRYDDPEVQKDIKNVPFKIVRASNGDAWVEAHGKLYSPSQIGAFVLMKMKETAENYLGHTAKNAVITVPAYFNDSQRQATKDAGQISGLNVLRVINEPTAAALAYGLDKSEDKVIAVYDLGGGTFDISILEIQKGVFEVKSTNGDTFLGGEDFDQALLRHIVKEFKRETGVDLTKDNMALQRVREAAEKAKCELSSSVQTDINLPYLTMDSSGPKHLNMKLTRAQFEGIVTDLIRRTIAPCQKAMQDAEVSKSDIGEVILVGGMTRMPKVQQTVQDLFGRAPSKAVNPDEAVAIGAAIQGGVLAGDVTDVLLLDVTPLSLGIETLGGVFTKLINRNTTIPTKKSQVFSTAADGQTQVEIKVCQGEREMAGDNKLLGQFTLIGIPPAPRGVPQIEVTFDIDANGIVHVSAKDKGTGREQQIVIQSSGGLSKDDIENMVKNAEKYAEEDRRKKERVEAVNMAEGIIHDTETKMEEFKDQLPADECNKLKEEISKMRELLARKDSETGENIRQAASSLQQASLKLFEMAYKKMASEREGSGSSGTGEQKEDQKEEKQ
T3 sequence (P0DMV8 2-641 limits assumed): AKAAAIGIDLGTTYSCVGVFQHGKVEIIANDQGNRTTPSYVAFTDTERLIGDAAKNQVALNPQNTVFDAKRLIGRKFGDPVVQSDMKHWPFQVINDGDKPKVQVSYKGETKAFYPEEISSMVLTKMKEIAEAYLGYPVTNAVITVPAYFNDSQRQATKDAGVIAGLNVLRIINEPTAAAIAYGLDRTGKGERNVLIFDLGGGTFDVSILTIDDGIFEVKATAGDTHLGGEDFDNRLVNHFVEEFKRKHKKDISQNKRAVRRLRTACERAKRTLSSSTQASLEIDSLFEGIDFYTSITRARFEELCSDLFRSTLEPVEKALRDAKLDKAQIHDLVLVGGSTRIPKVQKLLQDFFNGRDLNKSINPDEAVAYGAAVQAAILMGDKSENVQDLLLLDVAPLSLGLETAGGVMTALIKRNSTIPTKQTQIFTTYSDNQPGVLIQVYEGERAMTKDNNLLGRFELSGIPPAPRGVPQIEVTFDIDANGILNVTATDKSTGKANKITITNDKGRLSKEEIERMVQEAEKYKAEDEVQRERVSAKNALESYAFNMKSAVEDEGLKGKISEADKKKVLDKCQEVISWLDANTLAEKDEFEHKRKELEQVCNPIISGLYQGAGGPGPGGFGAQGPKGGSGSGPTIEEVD

| Binder | binding result (bovine serum albumin) | other results |
| --- | --- | --- |
| B1 | no binding |  |
| alanine-substituted ROS1-hFc fusion protein, L47A mutant (Fc fusion, not shown: a dimerising Fc or GST; small tags and cut ends, also called L47A mutant of ROS1 protein) CVTNLGQQLDAGTPHNLSEPCIQGCHFWNSVDQKNCALKCRESCEVGCSSAEGAYEEEVLENADLPTAPFASSIGSHNMTLRWKSANFSGVKYIIQWKYAQLLGSWTYTKTVSRPSYVVKPLHPFTEYIFRVVWIFTAQLQLYSPPSPSYRTHPHGVPETAPLIRNIESSSPDTVEVSWDPPQFPGGPILGYNLRLISKNQKLDAGTQRTSFQFYSTLPNTIYRFSIAAVNEVGEGPEAESSITTSSSAVQQEE | no binding |  |
| alanine-substituted ROS1-hFc fusion protein, L45A mutant (Fc fusion, not shown: a dimerising Fc or GST; small tags and cut ends, also called L45A mutant of ROS1 protein) CVTNLGQQADLGTPHNLSEPCIQGCHFWNSVDQKNCALKCRESCEVGCSSAEGAYEEEVLENADLPTAPFASSIGSHNMTLRWKSANFSGVKYIIQWKYAQLLGSWTYTKTVSRPSYVVKPLHPFTEYIFRVVWIFTAQLQLYSPPSPSYRTHPHGVPETAPLIRNIESSSPDTVEVSWDPPQFPGGPILGYNLRLISKNQKLDAGTQRTSFQFYSTLPNTIYRFSIAAVNEVGEGPEAESSITTSSSAVQQEE | no binding |  |
| B2 | no binding |  |
| B3 | no binding |  |
| B4 | no binding |  |
| alanine-substituted ROS1-hFc fusion protein, G48A mutant (Fc fusion, not shown: a dimerising Fc or GST; small tags and cut ends, also called G48A mutant of ROS1 protein) CVTNLGQQLDLATPHNLSEPCIQGCHFWNSVDQKNCALKCRESCEVGCSSAEGAYEEEVLENADLPTAPFASSIGSHNMTLRWKSANFSGVKYIIQWKYAQLLGSWTYTKTVSRPSYVVKPLHPFTEYIFRVVWIFTAQLQLYSPPSPSYRTHPHGVPETAPLIRNIESSSPDTVEVSWDPPQFPGGPILGYNLRLISKNQKLDAGTQRTSFQFYSTLPNTIYRFSIAAVNEVGEGPEAESSITTSSSAVQQEE | no binding |  |
| 3B20 scFv (phage-displayed clone) (scFv, the phage coat fusion is not described) scFv: LTQPSSVSANLGGTVKITCSGGSYGYGWYQQKAPGSAPVTVIYDNTNRPSDIPSRFSGSKSGSTGTLTITGVQVEDEAVYYCGSADSSSIATFGAGTTLTVLGQSSRSSGGGGSSGGGGSAVTLDESGGGLQTPGGTLSLVCKASGFSFSDRGMHWMRQAPGKGLEYVGAISGDGYITHYGAAVKGRATISRDNGQSTVRLQLNNLRAEDTATYYCTRGGGGNIDAWGHGTEVIVSSTS |  | binding result [1]: binds |
| 3B20 scFv-Cκ fusion protein (scFv, Coated on the plate in the alanine scanning ELISA; not shown: human kappa light chain constant region (Cκ)) LTQPSSVSANLGGTVKITCSGGSYGYGWYQQKAPGSAPVTVIYDNTNRPSDIPSRFSGSKSGSTGTLTITGVQVEDEAVYYCGSADSSSIATFGAGTTLTVLGQSSRSSGGGGSSGGGGSAVTLDESGGGLQTPGGTLSLVCKASGFSFSDRGMHWMRQAPGKGLEYVGAISGDGYITHYGAAVKGRATISRDNGQSTVRLQLNNLRAEDTATYYCTRGGGGNIDAWGHGTEVIVSSTS |  | binding result [2]: binds; binding result [3]: binds; binding result [4]: binds; binding result [5]: binds |
| 3B20 scFv-rFc fusion protein (Fc fusion, rabbit, domain: fragment crystallizable region Fc (rFc); scFv fused with rabbit Fc, expressed from modified pCEP4; also called 3B20-rFc; scFv(3B20)-rFc fusion protein; not shown: rabbit antibody fragment crystallizable region Fc (rFc)) LTQPSSVSANLGGTVKITCSGGSYGYGWYQQKAPGSAPVTVIYDNTNRPSDIPSRFSGSKSGSTGTLTITGVQVEDEAVYYCGSADSSSIATFGAGTTLTVLGQSSRSSGGGGSSGGGGSAVTLDESGGGLQTPGGTLSLVCKASGFSFSDRGMHWMRQAPGKGLEYVGAISGDGYITHYGAAVKGRATISRDNGQSTVRLQLNNLRAEDTATYYCTRGGGGNIDAWGHGTEVIVSSTS |  | binding result [6]: binds; binding result [7]: binds |
